In patent US20030129724A1 (Harvard, published 2003):
Values belong to the molecule of their own block, whether it stands above or below them.

B2: Recombinant FLAG-epitope tagged HDAC6 (enzyme, not shown: small tags and cut ends)
chain: MTSTGQDSTTTRQRRSRQNPQSPPQDSSVTSKRNIKKGAVPRSIPNLAEVKKKGKMKKLGQAMEEDLIVGLQGMDLNLEAEALAGTGLVLDEQLNEFHCLWDDSFPEGPERLHAIKEQLIQEGLLDRCVSFQARFAEKEELMLVHSLEYIDLMETTQYMNEGELRVLADTYDSVYLHPNSYSCACLASGSVLRLVDAVLGAEIRNGMAIIRPPGHHAQHSLMDGYCMFNHVAVAARYAQQKHRIRRVLIVDWDVHHGQGTQFTFDQDPSVLYFSIHRYEQGRFWPHLKASNWSTTGFGQGQGYTINVPWNQVGMRDADYIAAFLHVLLPVALEFQPQLVLVAAGFDALQGDPKGEMAATPAGFAQLTHLLMGLAGGKLILSLEGGYNLRALAEGVSASLHTLLGDPCPMLESPGAPCRSAQASVSCALEALEPFWEVLVRSTETVERDNMEEDNVEESEEEGPWEPPVLPILTWPVLQSRTGLVYDQNMMNHCNLWDSHHPEVPQRILRIMCRLEELGLAGRCLTLTPRPATEAELLTCHSAEYVGHLRATEKMKTRELHRESSNFDSIYICPSTFACAQLATGAACRLVEAVLSGEVLNGAAVVRPPGHHAEQDAACGFCFFNSVAVAARHAQTISGHALRILIVDWDVHHGNGTQHMFEDDPSVLYVSLHRYDHGTFFPMGDEGASSQIGRAAGTGFTVNVAWNGPRMGDADYLAAWHRLVLPIAYEFNPELVLVSAGFDAARGDPLGGCQVSPEGYAHLTHLLMGLASGRIILILEGGYNLTSISESMAACTRSLLGDPPPLLTLPRPPLSGALASITETIQVHRRYWRSLRVMKVEDREGPSSSKLVTKKAPQPAKPRLAERMTTREKKVLEAGMGKVTSASFGEESTPGQTNSETAVVALTQDQPSEAATGGATLAQTISEAAIGGAMLGQTTSEEAVGGATPDQTTSEETVGGAILDQTTSEDAVGGATLGQTTSEEAVGGATLAQTISEAAMEGATLDQTTSEEAPGGTELIQTPLASSTDHQTPPTSPVQGTTPQISPSTLIGSLRTLELGSESQGASESQAPGEENLLGEAAGGQDMADSMLMQGSRGLTDQAIFYAVTPLPWCPHLVAVCPIPAAGLDVTQPCGDCGTIQENWVCLSCYQVYCGRYINGHMLQHHGNSGHPLVLSYIDLSAWCYYCQAYVHHQALLDVKNIAHQNKFGEDMPHPH
notes: Full length ORF with C-terminal FLAG tag in pBJ5, expressed in TAg Jurkat cells; also called HDAC6-FLAG; HD6

How the values were obtained:
[1] = molecular target: HDAC4-EGFP (human) (UniProt P56524); assay: cell-based or functional assay
[2] = molecular target: T1, calyculin A-treated (hyperphosphorylated) HDAC4 (human, UniProt P56524 1-1084, hyperphosphorylated after calyculin A treatment of the cells; sites not determined); assay: immunopurified HDAC4-FLAG from calyculin A-treated cells incubated 1 hour with untreated TAg Jurkat lysate, Western blot
T1 construct: HDAC4-FLAG immunopurified from TAg Jurkat cells treated 1.5 hours with 20 nM calyculin A; also called HDAC4-FLAG from calyculin A-treated cells
Protocol: These samples were analyzed for 14-3-3 and HDAC3 binding by Western blot analysis.

[3] = molecular target: B2; assay: anti-FLAG co-immunoprecipitation from TAg Jurkat cells, Western blot
[4] = molecular target: T2, CHD4 (UniProt Q14839 1-1912, limits assumed); assay: as above
T2 construct: Endogenous protein detected by Western blot in immunoprecipitates; also called CHD chromodomain protein

[5] = molecular target: T3, mSin3A (UniProt Q96ST3 1-1273); assay: as above
T3 construct: Endogenous protein detected by Western blot in immunoprecipitates; also called co-repressor mSin3A
T3 sequence (looked up): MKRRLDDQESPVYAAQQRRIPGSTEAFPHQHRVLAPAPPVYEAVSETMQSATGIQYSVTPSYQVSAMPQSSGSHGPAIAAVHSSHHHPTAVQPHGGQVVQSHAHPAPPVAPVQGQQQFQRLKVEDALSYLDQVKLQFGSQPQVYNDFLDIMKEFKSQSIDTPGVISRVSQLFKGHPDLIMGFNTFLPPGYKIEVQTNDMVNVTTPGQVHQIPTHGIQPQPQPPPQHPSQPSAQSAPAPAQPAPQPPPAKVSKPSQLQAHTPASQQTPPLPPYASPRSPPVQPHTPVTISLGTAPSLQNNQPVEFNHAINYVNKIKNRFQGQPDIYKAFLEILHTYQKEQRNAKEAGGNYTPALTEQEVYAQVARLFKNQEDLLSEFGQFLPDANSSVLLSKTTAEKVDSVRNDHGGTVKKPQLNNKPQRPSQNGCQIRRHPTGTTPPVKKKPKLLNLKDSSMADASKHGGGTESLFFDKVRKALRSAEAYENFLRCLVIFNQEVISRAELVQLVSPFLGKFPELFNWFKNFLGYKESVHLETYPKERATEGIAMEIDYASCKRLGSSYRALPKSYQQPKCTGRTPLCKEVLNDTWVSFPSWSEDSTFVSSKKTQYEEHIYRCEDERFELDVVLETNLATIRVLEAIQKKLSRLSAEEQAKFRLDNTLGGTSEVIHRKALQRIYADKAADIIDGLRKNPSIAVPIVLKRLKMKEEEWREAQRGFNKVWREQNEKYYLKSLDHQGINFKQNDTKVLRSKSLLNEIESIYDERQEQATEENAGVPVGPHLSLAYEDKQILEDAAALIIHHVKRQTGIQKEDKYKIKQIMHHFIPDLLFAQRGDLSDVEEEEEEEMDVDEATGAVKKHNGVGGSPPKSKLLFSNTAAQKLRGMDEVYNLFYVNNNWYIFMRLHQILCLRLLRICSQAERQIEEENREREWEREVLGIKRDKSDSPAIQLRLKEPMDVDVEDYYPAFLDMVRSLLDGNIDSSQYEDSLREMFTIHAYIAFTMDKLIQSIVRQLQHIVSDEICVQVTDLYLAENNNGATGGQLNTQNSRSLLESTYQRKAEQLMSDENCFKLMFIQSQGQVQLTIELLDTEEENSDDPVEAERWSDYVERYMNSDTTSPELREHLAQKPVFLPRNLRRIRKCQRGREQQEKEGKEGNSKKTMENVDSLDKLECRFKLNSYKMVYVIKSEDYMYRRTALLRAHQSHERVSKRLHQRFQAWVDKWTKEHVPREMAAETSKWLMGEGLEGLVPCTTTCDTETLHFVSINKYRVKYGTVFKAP

[6] = molecular target: 14-3-3 ε, P62258
[7] = molecular target: 14-3-3 β, P31946
14-3-3 β, P31946, sequence (P31946 whole entry, looked up): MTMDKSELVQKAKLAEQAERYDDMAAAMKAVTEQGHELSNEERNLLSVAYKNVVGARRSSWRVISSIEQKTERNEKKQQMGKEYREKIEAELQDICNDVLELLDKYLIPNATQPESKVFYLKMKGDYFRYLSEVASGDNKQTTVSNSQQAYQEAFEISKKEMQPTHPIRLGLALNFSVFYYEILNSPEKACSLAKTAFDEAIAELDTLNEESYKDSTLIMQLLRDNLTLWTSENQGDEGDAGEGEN

14-3-3 ε, P62258, sequence (P62258 whole entry, looked up): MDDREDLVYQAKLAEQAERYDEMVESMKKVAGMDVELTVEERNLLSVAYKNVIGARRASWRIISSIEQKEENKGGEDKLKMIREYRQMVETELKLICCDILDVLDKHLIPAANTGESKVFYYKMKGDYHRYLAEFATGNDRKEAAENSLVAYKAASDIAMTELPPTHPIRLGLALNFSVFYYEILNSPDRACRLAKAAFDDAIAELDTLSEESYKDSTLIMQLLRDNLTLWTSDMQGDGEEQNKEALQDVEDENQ
T2 sequence (Q14839 whole entry): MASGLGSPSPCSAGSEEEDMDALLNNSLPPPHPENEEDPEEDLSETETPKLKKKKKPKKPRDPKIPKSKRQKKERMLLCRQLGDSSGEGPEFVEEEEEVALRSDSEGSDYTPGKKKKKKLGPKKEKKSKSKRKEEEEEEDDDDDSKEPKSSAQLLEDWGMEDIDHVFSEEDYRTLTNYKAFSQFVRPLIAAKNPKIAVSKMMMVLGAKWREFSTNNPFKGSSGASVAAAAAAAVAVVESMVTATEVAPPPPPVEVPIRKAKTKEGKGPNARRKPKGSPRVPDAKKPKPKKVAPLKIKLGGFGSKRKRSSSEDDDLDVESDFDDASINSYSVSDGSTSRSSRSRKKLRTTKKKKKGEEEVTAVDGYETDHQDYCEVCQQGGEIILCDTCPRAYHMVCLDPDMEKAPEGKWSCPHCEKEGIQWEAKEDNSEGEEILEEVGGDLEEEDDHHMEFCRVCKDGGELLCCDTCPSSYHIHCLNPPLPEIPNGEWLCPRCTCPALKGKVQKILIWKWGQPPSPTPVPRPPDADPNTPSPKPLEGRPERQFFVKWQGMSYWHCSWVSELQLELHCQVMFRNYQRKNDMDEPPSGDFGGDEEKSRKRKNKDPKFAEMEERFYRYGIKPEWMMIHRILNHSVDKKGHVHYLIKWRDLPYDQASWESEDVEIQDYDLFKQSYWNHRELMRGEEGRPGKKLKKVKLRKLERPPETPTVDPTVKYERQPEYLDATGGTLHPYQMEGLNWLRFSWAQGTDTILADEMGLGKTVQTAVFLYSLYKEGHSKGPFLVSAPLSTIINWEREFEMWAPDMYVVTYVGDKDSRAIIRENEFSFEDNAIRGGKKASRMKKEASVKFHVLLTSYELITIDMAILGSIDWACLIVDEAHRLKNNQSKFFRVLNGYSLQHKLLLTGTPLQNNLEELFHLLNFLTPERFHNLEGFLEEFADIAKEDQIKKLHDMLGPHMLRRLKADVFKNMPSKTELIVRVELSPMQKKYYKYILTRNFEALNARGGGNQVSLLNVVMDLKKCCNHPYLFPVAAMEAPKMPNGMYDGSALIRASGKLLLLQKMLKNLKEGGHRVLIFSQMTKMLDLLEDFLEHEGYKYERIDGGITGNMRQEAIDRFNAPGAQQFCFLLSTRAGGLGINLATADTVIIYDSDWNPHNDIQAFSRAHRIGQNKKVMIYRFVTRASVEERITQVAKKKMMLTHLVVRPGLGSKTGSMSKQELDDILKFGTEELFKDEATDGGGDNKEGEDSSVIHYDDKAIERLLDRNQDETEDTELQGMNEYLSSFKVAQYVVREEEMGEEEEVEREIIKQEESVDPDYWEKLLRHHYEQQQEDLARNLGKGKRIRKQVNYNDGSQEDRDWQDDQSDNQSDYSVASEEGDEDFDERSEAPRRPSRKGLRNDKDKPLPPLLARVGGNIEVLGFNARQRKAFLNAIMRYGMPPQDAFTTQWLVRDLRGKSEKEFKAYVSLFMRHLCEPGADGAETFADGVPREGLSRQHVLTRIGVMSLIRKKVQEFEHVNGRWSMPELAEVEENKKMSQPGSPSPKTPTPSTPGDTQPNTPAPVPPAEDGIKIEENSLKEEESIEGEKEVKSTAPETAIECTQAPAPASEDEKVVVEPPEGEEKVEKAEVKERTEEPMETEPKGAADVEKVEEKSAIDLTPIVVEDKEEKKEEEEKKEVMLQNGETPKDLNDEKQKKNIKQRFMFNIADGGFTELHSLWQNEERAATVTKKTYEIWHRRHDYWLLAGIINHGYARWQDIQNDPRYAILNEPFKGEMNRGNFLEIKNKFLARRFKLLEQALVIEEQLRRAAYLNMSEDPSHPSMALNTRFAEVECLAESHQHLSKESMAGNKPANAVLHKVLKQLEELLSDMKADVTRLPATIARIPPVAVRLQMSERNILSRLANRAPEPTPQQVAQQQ

cytoplasmic localization of HDAC4 (percent of U2OS cells), HDAC4-EGFP with simultaneous overexpression of 14-3-3 (% of the cells) [1]: 97
cytoplasmic localization of HDAC4 (percent of U2OS cells), control: HDAC4-EGFP alone without overexpressed 14-3-3 (% of the cells) [1]: 67
Molecule: myc-tagged 14-3-3 β (from UniProt P31946 1-246)

binding result [2]: binds
binding result [3]: no binding
B1: HDAC3 (enzyme, human, UniProt O15379 1-428, looked up)
chain: MAKTVAYFYDPDVGNFHYGAGHPMKPHRLALTHSLVLHYGLYKKMIVFKPYQASQHDMCRFHSEDYIDFLQRVSPTNMQGFTKSLNAFNVGDDCPVFPGLFEFCSRYTGASLQGATQLNNKICDIAINWAGGLHHAKKFEASGFCYVNDIVIGILELLKYHPRVLYIDIDIHHGDGVQEAFYLTDRVMTVSFHKYGNYFFPGTGDMYEVGAESGRYYCLNVPLRDGIDDQSYKHLFQPVINQVVDFYQPTCIVLQCGADSLGCDRLGCFNLSIRGHGECVEYVKSFNIPLLVLGGGGYTVRNVARCWTYETSLLVEEAISEELPYSEYFEYFAPDFTLHPDVSTRIENQNSRQYLDQIRQTIFENLKMLNHAPSVQIHDVPADLLTYDRTDEADAEERGPEENYSRPEAPNEFYDGDHDNDKESDVEI
notes: Endogenous protein co-immunoprecipitated from cell lysate; also used here for HDAC3 of staurosporine-treated cells; also called HDAC3 from untreated cells

Continued, molecule first:

Molecule: B2
binding result [4]: no binding
binding result [5]: no binding

B3: HDAC4 S246/466/632A triple mutant (protein)
chain: MSSQSHPDGLSGRDQPVELLNPARVNHMPSTVDVATALPLQVAPSAVPMDLRLDHQFSLPVAEPALREQQLQQELLALKQKQQIQRQILIAEFQRQHEQLSRQHEAQLHEHIKQQQEMLAMKHQQELLEHQRKLERHRQEQELEKQHREQKLQQLKNKEKGKESAVASTEVKMKLQEFVLNKKKALAHRNLNHCISSDPRYWYGKTQHSSLDQSSPPQSGVSTSYNHPVLGMYDAKDDFPLRKTAAEPNLKLRSRLKQKVAERRSSPLLRRKDGPVVTALKKRPLDVTDSACSSAPGSGPSSPNNSSGSVSAENGIAPAVPSIPAETSLAHRLVAREGSAAPLPLYTSPSLPNITLGLPATGPSAGTAGQQDTERLTLPALQQRLSLFPGTHLTPYLSTSPLERDGGAAHSPLLQHMVLLEQPPAQAPLVTGLGALPLHAQSLVGADRVSPSIHKLRQHRPLGRTQAAPLPQNAQALQHLVIQQQHQQFLEKHKQQFQQQQLQMNKIIPKPSEPARQPESHPEETEEELREHQALLDEPYLDRLPGQKEAHAQAGVQVKQEPIESDEEEAEPPREVEPGQRQPSEQELLFRQQALLLEQQRIHQLRNYQASMEAAGIPVSFGGHRPLSRAQASPASATFPVSVQEPPTKPRFTTGLVYDTLMLKHQCTCGSSSSHPEHAGRIQSIWSRLQETGLRGKCECIRGRKATLEELQTVHSEAHTLLYGTNPLNRQKLDSKKLLGSLASVFVRLPCGGVGVDSDTIWNEVHSAGAARLAVGCVVELVFKVATGELKNGFAVVRPPGHHAEESTPMGFCYFNSVAVAAKLLQQRLSVSKILIVDWDVHHGNGTQQAFYSDPSVLYMSLHRYDDGNFFPGSGAPDEVGTGPGVGFNVNMAFTGGLDPPMGDAEYLAAFRTVVMPIASEFAPDVVLVSSGFDAVEGHPTPLGGYNLSARCFGYLTKQLMGLAGGRIVLALEGGHDLTAICDASEACVSALLGNELDPLPEKVLQQRPNANAVRSMEKVMEIHSKYWRCLQRTTSTAGRSLIEAQTCENEEAETVTAMASLSVGVKPAEKRPDEEPMEEEPPL
localization to the cytoplasm [6]: localization of the triple mutant to the cytoplasm is dramatically decreased compared to the wild-type and single mutants
localization to the cytoplasm [7]: localization of the triple mutant to the cytoplasm is dramatically decreased compared to the wild-type and single mutants
